# Experimental data as given in patent publication US20260132200A1 (Regeneron, published 2026).
# Where a chain is given by its changes, count along the chain named. Read-outs that look alike come from different tables or passages of the source.
# T1: human CD3 expressed on cells (Jurkat, a CD3+ human T-cell line; human T cells) (human, UniProt P07766 23-126; P04234 22-100)
# T1 chain 1: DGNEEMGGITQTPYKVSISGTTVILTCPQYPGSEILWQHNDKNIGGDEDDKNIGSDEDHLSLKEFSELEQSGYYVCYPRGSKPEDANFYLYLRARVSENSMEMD
# T1 chain 2: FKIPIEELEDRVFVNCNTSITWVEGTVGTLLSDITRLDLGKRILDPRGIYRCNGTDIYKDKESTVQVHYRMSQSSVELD
# B1: H2M3541N (antibody, mouse IgG2, V domains shown)
# VH: EVQLVESGGGLVRPGRSLRLSCAASGFTFDDYTMHWVRQAPGKGLEWVSDISWNSGTIGYADSVKGRFTISRDNAKNSLYLQMNSLRPEDTALYYCAKDMSGYAHYYYYGMDVWGQGTTVTVSS
# VL: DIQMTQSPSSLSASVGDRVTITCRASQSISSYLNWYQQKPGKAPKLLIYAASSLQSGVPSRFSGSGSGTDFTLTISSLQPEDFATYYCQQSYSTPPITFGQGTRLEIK
# B2: H1M3613N (antibody, mouse IgG1, V domains shown)
# VH: B1 VH with R13Q, R19K, A23T, D30A, A40G, T57S, I58K, P88T, G110A, M111L
# VL: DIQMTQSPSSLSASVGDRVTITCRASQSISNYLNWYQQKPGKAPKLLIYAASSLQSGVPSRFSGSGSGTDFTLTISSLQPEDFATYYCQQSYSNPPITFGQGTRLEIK
# B3: H1M3542N (antibody, mouse IgG1, V domains shown)
# VH: B1 VH with R13Q, A23V, T28P, D30A, T57S, I58K, P88T, L93F, Y107F
# VL: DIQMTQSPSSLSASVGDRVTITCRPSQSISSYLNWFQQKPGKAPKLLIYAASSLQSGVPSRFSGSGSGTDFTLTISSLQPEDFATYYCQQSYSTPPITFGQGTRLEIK
# B4: H1M3549N (antibody, mouse IgG1, V domains shown)
# VH: B1 VH with R13Q, A23V, T28P, D30A, T57S, P88T, Y107F
# VL: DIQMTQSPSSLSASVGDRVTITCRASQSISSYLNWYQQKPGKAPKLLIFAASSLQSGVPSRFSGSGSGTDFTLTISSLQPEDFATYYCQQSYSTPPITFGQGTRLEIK
# B5: H2M3548N (antibody, mouse IgG2, V domains shown)
# VH: EVQLVESGGGLVQPGRSLRLSCAASGFKFADYAMHWVRQAPGKGLEWVSEISWNSGSIGYVDSVKGRFTISRDNAKNSLYLQMNSLRAEDTALYYCVKDKSGYGHYYIGMDVWGQGTTVIVSS
# VL: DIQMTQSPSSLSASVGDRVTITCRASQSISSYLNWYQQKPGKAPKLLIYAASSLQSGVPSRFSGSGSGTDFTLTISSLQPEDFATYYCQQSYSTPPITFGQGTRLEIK
# B6: H2M2690N (antibody, mouse IgG2, V domains shown)
# VH: EVQLVESGGGLVQPGRSLRLSCAASGFTFDDYTMHWVRQAPGKGLEWVSGISWNSGSIGYADSVKGRFTISRDNAKKSLYLQMNSLRAEDTALYYCAKDNSGYGHYYYGMDVWGQGTTVTVAS
# VL: EIVMTQSPATLSVSPGERATLSCRASQSVSSNLAWYQQKPGQAPRLLIYGASTRATGIPARFSGSGSGTEFTLTISSLQSEDFAVYYCQHYINWPLTFGGGTKVEIK
# B7: H1M2692N (antibody, mouse IgG1, V domains shown)
# VH: EVQLVESGGGLVQPGGSLRLSCAASGFSFDDYTMHWVRQPPGKGLEWVSGISWNSGSIGYADSVKGRFTISRDNAKNSLYLQMNSLRAGDTALYYCAKDNSGYGYYYYYGMDVWGQGTTVTVSS
# VL: B6 VL with H90Q, I92Y
# B8: H2M2706N (antibody, mouse IgG2, V domains shown)
# VH: QVQLVESGGGVVQPGRSLRLSCAASGFTFRSYAMHWVRQAPGKGLEWVAMVYYDGNNQYYADSVRGRFTISRDNSKNTLYLQMNSLRADDTAVYFCARGPGYNWLDPWGQGTLVTVSS
# VL: B6 VL with S31R, E70D, H90Q, I92N, E105V
# B9: H2M2708N (antibody, mouse IgG2, V domains shown)
# VH: B8 VH with Y32F, A33G, K43R, V51I, Y53F, N56K, Q58K, Q82E, N84S, D89E
# VL: B6 VL with A19V, V29I, S31R, I58V, Y86F, Y87H, H90Q, I92N, W94R, K103E
# B10: H2M2774N (antibody, mouse IgG2, V domains shown)
# VH: B8 VH with A23V, A33G, E46Q, V51I, N56K, Q58K, D89E, V93M
# VL: B6 VL with S28R, V29I, I58S, F83V, H90Q, Y91H, I92N
# B11: H2M2777N (antibody, mouse IgG2, V domains shown)
# VH: B8 VH with A23I, A33G, V51I, Q58K
# VL: B6 VL with H90Q, I92N, W94R
# B12: H2M2779N (antibody, V domains shown)
# VH: B6 VH with R16G, S25T, Y32F, A61V, K77N, H105Y, A122S
# VL: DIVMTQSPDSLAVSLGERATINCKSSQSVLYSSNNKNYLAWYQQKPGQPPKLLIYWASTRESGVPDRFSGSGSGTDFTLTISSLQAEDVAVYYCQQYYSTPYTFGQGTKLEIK
# B13: H2M2862N (antibody, mouse IgG2, V domains shown)
# VH: B8 VH with A33G, V51I, Q58K, Y59K, A88V, D89E
# VL: B6 VL with S31R, G57D, T72I, T74N, V85L, H90Q, I92S, K103E
# B14: H2M2691N (antibody, mouse IgG2, V domains shown)
# VH: B6 VH
# VL: B6 VL
# B15: H2M2707N (antibody, mouse IgG2, V domains shown)
# VH: B8 VH with A23I, A33G, V51I, Q58K
# VL: B6 VL with H90Q, I92N, W94R
# B16: H1M2712N (antibody, mouse IgG1, V domains shown)
# VH: B6 VH with R16G, S25T, Y32F, A61V, K77N, H105Y, A122S
# VL: B6 VL with Q27H, S31R, L33S, V85I, H90Q, I92N
# B17: H2M2710N (antibody, V domains shown)
# VH: B8 VH with Y32F, A33G, K43R, V51I, Y53F, N56K, Q58K, Q82E, N84S, D89E
# VL: B6 VL with S31R, I58V, Y86F, Y87H, H90Q, I92N, W94R, K103E
# B18: H2M2775N (antibody, mouse IgG2, V domains shown)
# VH: B8 VH with Y32F, A33G, K43R, V51I, Y53F, N56K, Q58K, Q82E, N84S, D89E
# VL: EIVMTQSPATLSVSPGERVILSCRASQSISRNLAWYQQKPGQAPRLLIYGATTRATGVPARFSGSGSGTEFTLTISSLQSEDFAVFYCQQYNNRPLTFGGGTEVEIK
# B19: H2M2886N (antibody, mouse IgG2, V domains shown)
# VH: B8 VH with Y32F, A33G, K43R, V51I, Y53F, N56K, Q58K, Q82E, N84S, D89E
# VL: B18 VL
# B20: H1H5788P (antibody, V domains shown)
# VH: B6 VH with K77N, Y94F, N100Q, A122S
# VL: B6 VL with G57D, Y87H, H90Q, I92N
# B21: H2M2885N (antibody, mouse IgG2, V domains shown)
# VH: B8 VH with Y32F, A33G, K43R, V51I, Y53F, N56K, Q58K, Q82E, N84S, D89E
# VL: B18 VL
# B22: H2M2711N (antibody, V domains shown)
# VH: B8 VH with Y32F, A33G, K43R, V51I, Y53F, N56K, Q58K, Q82E, N84S, D89E
# VL: B18 VL with V19A, I20T, I29V, T52S, Y87H
# B23: H1H5755B (antibody, human IgG1, V domains shown)
# VH: EVQLVESGGGVVQPGRSLRLSCAASGFTFSNYGMHWVRQAPGKGLEWVTVILHDGSYKYYADSVKGRFTISRDNSKNTLHLQMNSLRTEDTAVYYCAKGPMFRGVPYNHYYGMDVWGQGTTVTVSS
# VL: DIQMTQSPSSLSASVGDRVTITCRASQGIRNDLGWYQQKPGKAPKRLIYAASSLQSGVSSRFSGSGSGTEFTLTISSLQPEDFATYYCLQHNSYPYTFGQGTKVEIKR
# B24: H1H5757B (antibody, human IgG1, V domains shown)
# VH: B23 VH with N31S, Y57N, K58R, Y60S, H80Y, S85I, T88V, A97T, P100A, F102V
# VL: B23 VL with S53I, S59P, V104L
# B25: H1H5758B (antibody, human IgG1, V domains shown)
# VH: B23 VH with N31S, Y57N, K58R, H80Y, S85I, T88A, A97T, P100A, F102V
# VL: B23 VL with Q3V, S53N, S59P, V104L
# B26: H2M3547N (antibody, mouse IgG2, V domains shown)
# VH: EAQLVESGGGLVQPGRSLRLSCTTSGFTFDDYTMHWVRQAPGKGLEWISDISWNGGTKGYADSVKGRFTISRDNAKNSLYLQMDSLRGEDTALYYCVKDKSGYGHFYFGLDVWGQGTTVTVSS
# VL: DIQMTQSPSSLTASVGDRVTFTCRASQSISRHLSWYQQKPGKAPKLLIYAASSLESGVPSRFSGSGSGTDFTLTISSLHPEDFATYYCQQSYSNPPITFGQGTRLEIK
# B27: H2M3540N (antibody, mouse IgG2, V domains shown)
# VH: QVHLEESGGGVVQPGRSLRLSCSASGFTFSSYAMHWVRQAPGKGLEWVAVIWYDGTNKYYLDSVKGRFTISRDNSKNTLFLQMNSLRAEDTAVYYCARDRGSIITHWGQGTLVTVSS
# VL: DIQMTQSPSSLSASIGDRVTITCRASQNISSYLNWYQQKPGKAPKLLIYAASSLQSGVPSRFSGSGSGTDFTLTISSLQPEDFATYYCQQTYSTPPITFGQGTRLEIK
# B28: H2M3543N (antibody, mouse IgG2, V domains shown)
# VH: B1 VH with R13Q, T57S, I70V, P88G, Y107G
# VL: B27 VL with I15V, N28S, S30R, S31N, A43V, T91S, T94N
# B29: H2M3563N (antibody, mouse IgG2, V domains shown)
# VH: B1 VH with Q3H, R13Q, T57S, I70V, P88G, A104G, Y107G, Y108K
# VL: B27 VL with I15V, N28S, S30R, A43V, S76N, E81D, T94N
# B30: H1H5752P (antibody, human IgG1, V domains shown)
# VH: QVQLVESGGGVVQPGRSLRPSCAASGFSFRDYGMHWVRQAPGKGLEWMAHIWYNGKNKYYADSVKGRFTISRDNSKNTLYLQMNSLRPEDTAVYYCARDGVSARGTPFDYWGQGTLVTVSS
# VL: ETTLTQSPAFMSAAPGDKVSISCIASQYIDDDVNWYQQKPGETAIFIIQEASTLVPGISPRFSGSGYGTHFTLTINNIDSEDAAFYFCLQHDNFPYTFGQGTKLEIK
# Assays:
# [1] = biological target: T1, human CD3 expressed on cells (Jurkat, a …); test: cell-based or functional assay
# [2] = biological target: T1, human CD3 expressed on cells (Jurkat, a …); test: cell-based or functional assay
Binder,U937 Cytotoxicity Human T-cells [M] (EC50) [1],U937 Cytotoxicity Human T-cells [M] (EC50) [2]
B1,5.39e-11 M,–
B2,8.66e-10 M,–
B3,2.92e-11 M,–
B4,1.07e-10 M,–
B5,5.5e-12 M,–
B6,2.79e-11 M,–
B7,3.59e-10 M,–
B8,7.91e-12 M,–
B9,3.27e-12 M,–
B10,2.46e-12 M,–
B11,4.86e-12 M,–
B12,6.75e-10 M,–
B13,7.66e-12 M,–
B14,2.34e-11 M,–
B15,7.21e-12 M,–
B16,3.14e-10 M,–
B17,3.97e-12 M,–
B18,3.38e-12 M,–
B19,8.06e-12 M,–
B20,–,1.54e-11 M
B21,3.71e-12 M,–
B22,3.66e-12 M,–
B23,–,5.16e-11 M
B24,–,9.65e-11 M
B25,–,8.86e-08 M
B26,3.17e-11 M,–
B27,1.25e-11 M,–
B28,1.31e-11 M,–
B29,4.05e-11 M,–
B30,–,1.85e-11 M
